Measured values taken from paper PMC10567853, “USP1 promotes cholangiocarcinoma progression by deubiquitinating PARP1 to prevent its proteasomal degradation” (Cell Death & Disease, 2023).

Molecular target: T1, Myc-tagged full-length (FL) PARP1 (UniProt P09874 1-1014)
T1 construct: also called Myc-PARP1
Assay: pull-down; GST, GST-USP1 or GST-USP1 C90S coupled to glutathione-Sepharose beads, incubated with purified Myc-PARP1; 50 mM Tris-HCl, 200 mM NaCl, 1 mM EDTA, 1% NP-40, 1 mM DTT, 10 mM MgCl2, pH 8.0; 4 °C, 4 hours
Conditions: both partners purified

T1 sequence (P09874 whole entry): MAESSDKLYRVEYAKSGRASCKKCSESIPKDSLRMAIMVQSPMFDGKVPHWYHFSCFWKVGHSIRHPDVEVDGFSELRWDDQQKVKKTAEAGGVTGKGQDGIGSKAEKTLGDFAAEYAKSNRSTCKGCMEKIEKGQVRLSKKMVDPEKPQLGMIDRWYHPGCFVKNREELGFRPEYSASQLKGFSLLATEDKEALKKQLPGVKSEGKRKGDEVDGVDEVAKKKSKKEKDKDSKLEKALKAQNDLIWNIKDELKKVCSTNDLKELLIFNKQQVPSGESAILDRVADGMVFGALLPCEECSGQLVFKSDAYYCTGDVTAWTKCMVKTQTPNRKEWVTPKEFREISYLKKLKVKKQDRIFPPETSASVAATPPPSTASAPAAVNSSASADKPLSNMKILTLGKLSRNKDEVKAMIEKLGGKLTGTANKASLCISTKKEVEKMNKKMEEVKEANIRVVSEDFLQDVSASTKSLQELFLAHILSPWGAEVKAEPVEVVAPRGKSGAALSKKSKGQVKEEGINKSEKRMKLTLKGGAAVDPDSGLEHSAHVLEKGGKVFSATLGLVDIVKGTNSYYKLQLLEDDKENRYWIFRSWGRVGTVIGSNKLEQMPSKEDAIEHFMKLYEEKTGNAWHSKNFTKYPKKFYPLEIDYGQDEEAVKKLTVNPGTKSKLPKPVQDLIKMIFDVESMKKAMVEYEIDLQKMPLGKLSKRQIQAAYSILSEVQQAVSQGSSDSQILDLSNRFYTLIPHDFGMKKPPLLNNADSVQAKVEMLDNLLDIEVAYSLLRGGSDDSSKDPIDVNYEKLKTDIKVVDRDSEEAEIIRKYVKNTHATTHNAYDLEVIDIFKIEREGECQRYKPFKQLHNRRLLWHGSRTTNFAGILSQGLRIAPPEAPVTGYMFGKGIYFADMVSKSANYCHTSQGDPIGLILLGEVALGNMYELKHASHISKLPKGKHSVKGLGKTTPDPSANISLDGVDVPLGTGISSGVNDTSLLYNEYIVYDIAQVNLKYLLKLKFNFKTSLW

Binder | binding result
GST-USP1 (enzyme, UniProt O94782 1-785, looked up, Coupled to glutathione-Sepharose beads in the pull-down; also called recombinant GST-USP1; source: E. coli BL21 (DE3), purified (GST-tag purification resin)) MPGVIPSESNGLSRGSPSKKNRLSLKFFQKKETKRALDFTDSQENEEKASEYRASEIDQVVPAAQSSPINCEKRENLLPFVGLNNLGNTCYLNSILQVLYFCPGFKSGVKHLFNIISRKKEALKDEANQKDKGNCKEDSLASYELICSLQSLIISVEQLQASFLLNPEKYTDELATQPRRLLNTLRELNPMYEGYLQHDAQEVLQCILGNIQETCQLLKKEEVKNVAELPTKVEEIPHPKEEMNGINSIEMDSMRHSEDFKEKLPKGNGKRKSDTEFGNMKKKVKLSKEHQSLEENQRQTRSKRKATSDTLESPPKIIPKYISENESPRPSQKKSRVKINWLKSATKQPSILSKFCSLGKITTNQGVKGQSKENECDPEEDLGKCESDNTTNGCGLESPGNTVTPVNVNEVKPINKGEEQIGFELVEKLFQGQLVLRTRCLECESLTERREDFQDISVPVQEDELSKVEESSEISPEPKTEMKTLRWAISQFASVERIVGEDKYFCENCHHYTEAERSLLFDKMPEVITIHLKCFAASGLEFDCYGGGLSKINTPLLTPLKLSLEEWSTKPTNDSYGLFAVVMHSGITISSGHYTASVKVTDLNSLELDKGNFVVDQMCEIGKPEPLNEEEARGVVENYNDEEVSIRVGGNTQPSKVLNKKNVEAIGLLGGQKSKADYELYNKASNPDKVASTAFAENRNSETSDTTGTHESDRNKESSDQTGINISGFENKISYVVQSLKEYEGKWLLFDDSEVKVTEEKDFLNSLSPSTSPTSTPYLLFYKKL | binds
GST-USP1 C90S (enzyme, UniProt O94782 1-785, looked up, Coupled to glutathione-Sepharose beads in the pull-down; source: E. coli BL21 (DE3), purified (GST-tag purification resin)) MPGVIPSESNGLSRGSPSKKNRLSLKFFQKKETKRALDFTDSQENEEKASEYRASEIDQVVPAAQSSPINCEKRENLLPFVGLNNLGNTSYLNSILQVLYFCPGFKSGVKHLFNIISRKKEALKDEANQKDKGNCKEDSLASYELICSLQSLIISVEQLQASFLLNPEKYTDELATQPRRLLNTLRELNPMYEGYLQHDAQEVLQCILGNIQETCQLLKKEEVKNVAELPTKVEEIPHPKEEMNGINSIEMDSMRHSEDFKEKLPKGNGKRKSDTEFGNMKKKVKLSKEHQSLEENQRQTRSKRKATSDTLESPPKIIPKYISENESPRPSQKKSRVKINWLKSATKQPSILSKFCSLGKITTNQGVKGQSKENECDPEEDLGKCESDNTTNGCGLESPGNTVTPVNVNEVKPINKGEEQIGFELVEKLFQGQLVLRTRCLECESLTERREDFQDISVPVQEDELSKVEESSEISPEPKTEMKTLRWAISQFASVERIVGEDKYFCENCHHYTEAERSLLFDKMPEVITIHLKCFAASGLEFDCYGGGLSKINTPLLTPLKLSLEEWSTKPTNDSYGLFAVVMHSGITISSGHYTASVKVTDLNSLELDKGNFVVDQMCEIGKPEPLNEEEARGVVENYNDEEVSIRVGGNTQPSKVLNKKNVEAIGLLGGQKSKADYELYNKASNPDKVASTAFAENRNSETSDTTGTHESDRNKESSDQTGINISGFENKISYVVQSLKEYEGKWLLFDDSEVKVTEEKDFLNSLSPSTSPTSTPYLLFYKKL | binds
